# B1: PHD2 and PHD3 fingers of human MLL4 (aa 227-324) [human] / ASXL2 peptide (residues 650-670 of ASXL2) [human] (parent complex)
# chain 1: ARCAVCEGPGELCDLFFCTSCGHHYHGACLDTALTARKRAGWQCPECKVCQACRKPGNDSKMLVCETCDKGYHTFCLKPPMEELPAHSWKCKACRVCR
# chain 2: NRTGARTLADIKAKAQLVKAQ
# Variants of: B1
# Assay: fluorescence spectroscopy
row,Kd [µM],Variant
1,11,chain 2 R6I

# Variants of: B1
# Assay: fluorescence spectroscopy
# Remark: another data set of the same source
row,Kd [µM],Variant
1,10,chain 1 E66K

# Reference: article PMC11161652, “ASXLs binding to the PHD2/3 fingers of MLL4 provides a mechanism for the recruitment of BAP1 to active enhancers” (Nature Communications, 2024)
